{"source": "patent US11124550B2", "about": "“Proteinaceous molecules and methods of use” (priority 2015, dated 2021)", "key": {"TG or DRG neurons": {"tested_on": "TG or DRG neurons", "experiment": "Calcium imaging of cultured somatosensory neurons (Fura-2)", "assay_type": "cell-based, rat"}, "in vitro": {"experiment": "in vitro", "conditions": "human, cerebrospinal or other body fluid"}, "hNav1.1 [1]": {"molecular_target": "T1, hNav1.1 (Homo sapiens, UniProt P35498)", "T1 construct": "expressed in transfected cells; host or cells: HEK293T", "experiment": "Automated whole-cell patch clamp (QPatch 16X), sustained currents in HEK293 cells", "assay_type": "cell-based", "conditions": "for fast inactivation and sustained current at end of depolarising pulse, hNav1.1: 300 nM; for EC50: HEK293 cells stably expressing hNav1.1, n=3, read-out: EC50 for evoking sustained currents at hNav1.1", "method": "The activity of recombinant Hm1b was assessed at hNav1.1-1.7. Sodium currents were measured from hNav channels stably expressed in HEK293 cells using an automated whole-cell patch-clamp electrophysiology system (QPatch 16X; Sophion, Ballerup, Denmark). The extracellular solution comprised 2 mM CaCl2), 1 mM MgCl2, 10 mM HEPES, 4 mM KCl, 145 mM NaCl, 10 mM D-glucose at pH 7.3, and 305 mOsm. The intracellular solution comprised 140 mM CsF, 1 mM/5 mM EGTA/CsOH, 10 mM HEPES, 10 mM NaCl at pH 7.3, osmolality 320 mOsm. The elicited currents were sampled at 25 kHz and filtered at 5 kHz. Cells were maintained at a holding potential of −80 mV and sodium currents were elicited by 210 ms voltage steps at 0 mV after a 50 ms conditioning step from −120 mV. For dose-response experiments, cells were incubated for 5 min with increasing concentrations of Hm1b. Peptide stock solutions were made up to 10 μM and serial dilutions were prepared in extracellular solution containing 0.1% BSA. Graphs and fittings were performed using Prism 7.0 (GraphPad Software, San Diego, Calif.). Numerical data are presented as mean SEM based on at least three experiments (n≥3).\nThe point mutation (Lys to Ser at position 11) was introduced into the pLIC-MBP-Hm1b expression plasmid (produced according to the methods of Example 7) by polymerase chain reaction (PCR) using mutagenic primers and standard protocols with Platinum Pfx DNA Polymerase (Invitrogen). Mutagenic primers were designed using the online tool PrimerX and synthesised by Integrated DNA Technologies, Inc. (Emu Heights, NSW). DNA from the mutant construct was isolated and sequenced to verify the desired mutation (AGRF, Brisbane, Australia). Plasmid DNA was isolated using ISOLATE II plasmid Mini Kit (Bioline, London, UK) for transformation into E. coli BL21 cells for recombinant peptide production. […]."}, "hNav1.1 [2]": {"molecular_target": "T1, hNav1.1", "experiment": "Automated planar whole-cell patch clamp (Patchliner), hSCN1A HEK293T cells", "assay_type": "cell-based", "text": "(§1) To characterize the functional activity of Hm1a and Hm1b, HEK293T cells stably transfected with either hSCN1A, hSCN2A, hSCN3A, hSCN5A, hSCN9A or hSCN10A as well as CHO cells stably transfected with hSCN4A or hSCN8A were used for whole-cell patch-clamp analysis with a high throughput automated planar patch-clamp technology.\n(§2) HEK293T cells stably transfected with either hSCN1A, hSCN2A, hSCN3A, hSCN5A, hSCN9A or hSCN10A were maintained in Dulbecco's Modified Eagle's Medium Nutrient Mixture F-12 (Invitrogen, Carlsbad, Calif., USA) supplemented with 10% (v/v) foetal bovine serum (FBS) (Invitrogen), 0.9% Penicillin/Streptomycin (P/S) solution and 100 μg/mL hygromycin or 100 μg/mL neomycin. CHO cells stably transfected with hSCN4A or hSCN8A were maintained in Ham's F12 Nutrient Mixture (Invitrogen, Carlsbad, Calif., USA) supplemented with 10% (v/v) FBS, 0.9% P/S solution and 100 μg/mL hygromycin. All cells were grown in T75 flasks (BD Biosciences, San Jose, Calif., USA) to ˜70% confluency.\nPatch-clamp recordings were conducted in the whole-cell configuration using a Patchliner® (Nanion Technologies, Munich, Germany). Before recordings, cells were detached from culture flasks with Accutase Cell Detachment Solution (Innovative Cell Technologies Inc., San Diego, Calif., USA) and resuspended at a density of 1×10^6 to 5×10^7 per milliliter in 50% serum free media and 50% external recording solution v/v. The external recording solution comprised: 140 mM NaCl, 4 mM KCl, 1 mM MgCl2, 2 mM CaCl2), 5 mM D-glucose, 10 mM HEPES (pH adjusted to 7.4 with NaOH). The osmolarity of this solution was 298 mOsm. The internal recording solution comprised: 50 mM CsCl, 10 mM NaCl, 60 mM CsF, 2 mM MgCl2, 20 mM EGTA, 10 mM HEPES (pH adjusted to 7.2 with CsOH) and the osmolarity of this solution was 285 mOsm. […]\n(§3) The voltage dependence of activation was studied by measuring the normalised peak currents during 100 ms depolarisations from −120 mV to +30 mV in 5 mV increments. The resulting current-voltage curve was fit to the equation I=[I+exp(−0.03937.z.(V−V1/2)]/g.(V−Vr), where I is current amplitude; z is apparent gating charge; V is test potential; V1/2 is half maximal voltage; g is a factor related to the maximum number of open channels; and Vr is reversal potential. Conductance was determined using G=I/(V−Vr), where G is conductance. The conductance values were then fit with the Boltzmann equation G=1/(1+exp[(V−V1/2)/a]), where a is the slope of the half-maximum, V is the potential of the given pulse and V1/2 is the potential for the half-maximal activation. To study steady-state fast inactivation, cells were held at conditioning pre-pulse potentials ranging from −120 mV to +30 mV in 5 mV increments from a holding potential of −120 mV and a test pulse at 0 mV for 20 ms. […]"}, "hNav1.2": {"molecular_target": "T2, hNav1.2 (Homo sapiens, UniProt Q99250)", "T2 construct": "expressed in transfected cells; host or cells: HEK293T", "experiment": "Automated planar whole-cell patch clamp (Patchliner), hSCN2A HEK293T cells", "assay_type": "cell-based", "text": "as §1, §2\n(§4) Patch-clamp recordings were conducted in the whole-cell configuration using a Patchliner® (Nanion Technologies, Munich, Germany). […]\nas §3"}, "hNav1.6": {"molecular_target": "T3, hNav1.6 (Homo sapiens, UniProt Q9UQD0)", "T3 construct": "expressed in transfected cells; host or cells: CHO", "experiment": "Automated planar whole-cell patch clamp (Patchliner), hSCN8A CHO cells", "assay_type": "cell-based", "text": "as §1, §2, §4, §3"}, "hNav1.3": {"molecular_target": "T4, hNav1.3 (Homo sapiens, UniProt Q9NY46)", "T4 construct": "expressed in transfected cells; host or cells: HEK293T", "experiment": "Automated planar whole-cell patch clamp (Patchliner), hSCN3A HEK293T cells", "assay_type": "cell-based", "text": "as §1, §2, §4, §3"}, "[3]": {"conditions": "5 nM and 50 nM, potentials more positive than −15 mV"}}, "note": "Positions of bridges follow the written chain, without caps; N, C: chain ends. Residues, ends and D or L forms follow the SMILES beside them.", "data": [{"molecule": "O=C(Nc1ccc(S(=O)(=O)Nc2nccs2)cc1)C(c1ccccc1)c1ccccc1", "note": "[ICA-121431]", "values": [{"measurement": "calcium responses induced by Hm1a", "setting": "TG or DRG neurons; ICA-121431 500 nM", "result": "greatly diminish"}, {"measurement": "responses to SGTx1", "setting": "TG or DRG neurons; in presence of ICA-121431", "result": "did not attenuate"}]}, {"molecule": "CSCC[C@@H]1NC(=O)[C@H](CC(C)C)NC(=O)[C@H](CCCNC(=N)N)NC(=O)[C@H](CO)NC(=O)[C@@H]2CSSC[C@@H]3NC(=O)[C@H](CO)NC(=O)CNC(=O)[C@H]([C@@H](C)O)NC(=O)[C@H](CSSC[C@H](N)C(=O)N[C@@H](CCCCN)C(=O)NCC(=O)N[C@@H](CCCCN)C(=O)NCC(=O)N[C@@H](C)C(=O)N[C@@H](CCCCN)C(=O)N2)NC(=O)[C@H](CSSC[C@@H](C(N)=O)NC(=O)[C@H](CCCCN)NC(=O)CNC(=O)[C@H](CO)NC(=O)[C@H](CCCNC(=N)N)NC3=O)NC(=O)[C@H](CC(=O)O)NC(=O)[C@H](Cc2ccc(O)cc2)NC1=O", "note": "[ω-conotoxin MVIIA]", "values": [{"measurement": "remaining at 72 h", "setting": "in vitro", "result": "~10", "unit": "%"}]}, {"molecule": "CC(C)C[C@@H]1NC(=O)[C@H](Cc2c[nH]cn2)NC(=O)[C@H](CCCCN)NC(=O)[C@@H]2CSSC[C@H](NC(=O)[C@H](CCC(=O)O)NC(=O)[C@@H](N)CO)C(=O)N[C@@H](CCCNC(=N)N)C(=O)N[C@@H](Cc3ccc(O)cc3)C(=O)N[C@@H](CC(C)C)C(=O)N[C@@H](Cc3ccccc3)C(=O)NCC(=O)NCC(=O)N[C@H]3CSSC[C@H](NC(=O)CNC1=O)C(=O)N[C@@H](CCCNC(=N)N)C(=O)N[C@@H]([C@@H](C)O)C(=O)N[C@@H](CC(=O)O)C(=O)N[C@@H](CC(C)C)C(=O)N[C@@H](Cc1ccc(O)cc1)C(=O)N[C@@H](Cc1ccc(O)cc1)C(=O)N[C@H](C(=O)N[C@@H](C)C(=O)N[C@@H](Cc1c[nH]c4ccccc14)C(=O)N[C@@H](CC(=O)O)C(=O)NCC(=O)N[C@H](C(=O)N[C@@H](Cc1ccccc1)C(=O)O)[C@@H](C)O)CSSC[C@H](NC(=O)[C@H](CC(=O)O)NC(=O)[C@H](C)NC(=O)[C@H]([C@@H](C)O)NC(=O)[C@H]([C@@H](C)O)NC(=O)[C@H](CCCCN)NC3=O)C(=O)N2", "note": "[recombinant Hm1b]", "values": [{"measurement": "fast inactivation and sustained current at end of depolarising pulse, hNav1.1", "setting": "hNav1.1 [1]", "result": "delayed fast inactivation and induced a sustained current"}, {"measurement": "EC50", "setting": "hNav1.1 [1]", "result": 18.5, "unit": "nM"}, {"measurement": "selectivity for hNav1.1 over hNav1.2, hNav1.4, hNav1.5, hNav1.6 and hNav1.7", "setting": "hNav1.1 [1]; sustained currents at 300 nM", "result": "very high level of selectivity"}]}, {"molecule": "NC1=N[C@H](O)[C@H]2[C@H]3O[C@]4(O)O[C@@H]([C@@H](O)[C@@]2(N1)[C@@H]4O)[C@]3(O)CO", "note": "[TTX, Tetrodotoxin]", "values": [{"measurement": "Hm1a-evoked calcium responses", "setting": "TG or DRG neurons", "result": "blocked"}]}, {"molecule": "ECRYLFGGCKTTADCCKHLGCRTDLYYCAWDGTF-NH2 [Hm1b]", "values": [{"measurement": "voltage-dependence of fast inactivation of hNav1.1", "setting": "hNav1.1 [2]", "result": "does not appear to alter"}, {"measurement": "voltage-dependence of steady-state activation of hNav1.1", "setting": "hNav1.1 [2]", "result": "slight hyperpolarizing shift"}, {"measurement": "time constants of fast inactivation of hNav1.1", "setting": "hNav1.1 [2]; [3]", "result": "increases"}, {"measurement": "hNav1.1 channel inactivation", "setting": "hNav1.1 [2]; 1, 5 or 50 nM", "result": "potently inhibits"}, {"measurement": "voltage-dependence of fast inactivation of hNav1.2", "setting": "hNav1.2", "result": "does not appear to alter"}, {"measurement": "hNav1.2 channel inactivation", "setting": "hNav1.2; 1 nM, 5 nM or 50 nM", "result": "did not have a significant effect"}, {"measurement": "time constants of fast inactivation of hNav1.2", "setting": "hNav1.2; 50 nM, potentials more positive than −10 mV", "result": "increases"}, {"measurement": "time constants of fast inactivation of hNav1.6", "setting": "hNav1.6", "result": "did not have an effect"}, {"measurement": "voltage-dependence of fast inactivation of hNav1.6", "setting": "hNav1.6", "result": "does not appear to alter"}, {"measurement": "hNav1.6 channel inactivation", "setting": "hNav1.6; 5 nM and 50 nM, slight inhibitory effect, compared with hNav1.3", "result": "to a lesser extent"}, {"measurement": "voltage-dependence of fast inactivation of hNav1.3", "setting": "hNav1.3", "result": "does not appear to alter"}, {"measurement": "hNav1.3 channel inactivation", "setting": "hNav1.3; 5 nM and 50 nM", "result": "slight inhibitory effect"}, {"measurement": "time constants of fast inactivation of hNav1.3", "setting": "hNav1.3; [3]", "result": "increased"}]}, {"molecule": "CC(C)C[C@@H]1NC(=O)[C@H](Cc2c[nH]cn2)NC(=O)[C@H](CCCCN)NC(=O)[C@@H]2CSSC[C@H](NC(=O)[C@H](CCC(=O)O)NC(=O)[C@@H](N)CO)C(=O)N[C@@H](CCCNC(=N)N)C(=O)N[C@@H](Cc3ccc(O)cc3)C(=O)N[C@@H](CC(C)C)C(=O)N[C@@H](Cc3ccccc3)C(=O)NCC(=O)NCC(=O)N[C@H]3CSSC[C@H](NC(=O)CNC1=O)C(=O)N[C@@H](CCCNC(=N)N)C(=O)N[C@@H]([C@@H](C)O)C(=O)N[C@@H](CC(=O)O)C(=O)N[C@@H](CC(C)C)C(=O)N[C@@H](Cc1ccc(O)cc1)C(=O)N[C@@H](Cc1ccc(O)cc1)C(=O)N[C@H](C(=O)N[C@@H](C)C(=O)N[C@@H](Cc1c[nH]c4ccccc14)C(=O)N[C@@H](CC(=O)O)C(=O)NCC(=O)N[C@H](C(=O)N[C@@H](Cc1ccccc1)C(=O)O)[C@@H](C)O)CSSC[C@H](NC(=O)[C@H](CC(=O)O)NC(=O)[C@H](C)NC(=O)[C@H]([C@@H](C)O)NC(=O)[C@H]([C@@H](C)O)NC(=O)[C@H](CO)NC3=O)C(=O)N2", "note": "[recombinant Hm1b[K11S]] (H-SECRYLFGGCSTTADCCKHLGCRTDLYYCAWDGTF-OH; disulfide 3-17, 10-22, 16-29)", "values": [{"measurement": "fast inactivation and sustained current at end of depolarising pulse, hNav1.1", "setting": "hNav1.1 [1]", "result": "delayed fast inactivation"}, {"measurement": "EC50", "setting": "hNav1.1 [1]", "result": 39.5, "unit": "nM"}]}]}
